Reference: US20250277030A1, “ANTI-NAPI2B ANTIBODIES AND METHODS OF USE” (Zymeworks BC Inc., priority 2022, published 2025)

Tests used:
human NaPi2b = biological target: T1, human NaPi2b (Homo sapiens, UniProt O95436); experiment: Flow cytometry binding to HEK293-6e cells transfected with human NaPi2b (Example 5); conditions: transfected HEK293-6e cells, 18-24 hours at 4° C.
T1 construct: host or cells: HEK293-6e
T1 sequence (O95436 1-690): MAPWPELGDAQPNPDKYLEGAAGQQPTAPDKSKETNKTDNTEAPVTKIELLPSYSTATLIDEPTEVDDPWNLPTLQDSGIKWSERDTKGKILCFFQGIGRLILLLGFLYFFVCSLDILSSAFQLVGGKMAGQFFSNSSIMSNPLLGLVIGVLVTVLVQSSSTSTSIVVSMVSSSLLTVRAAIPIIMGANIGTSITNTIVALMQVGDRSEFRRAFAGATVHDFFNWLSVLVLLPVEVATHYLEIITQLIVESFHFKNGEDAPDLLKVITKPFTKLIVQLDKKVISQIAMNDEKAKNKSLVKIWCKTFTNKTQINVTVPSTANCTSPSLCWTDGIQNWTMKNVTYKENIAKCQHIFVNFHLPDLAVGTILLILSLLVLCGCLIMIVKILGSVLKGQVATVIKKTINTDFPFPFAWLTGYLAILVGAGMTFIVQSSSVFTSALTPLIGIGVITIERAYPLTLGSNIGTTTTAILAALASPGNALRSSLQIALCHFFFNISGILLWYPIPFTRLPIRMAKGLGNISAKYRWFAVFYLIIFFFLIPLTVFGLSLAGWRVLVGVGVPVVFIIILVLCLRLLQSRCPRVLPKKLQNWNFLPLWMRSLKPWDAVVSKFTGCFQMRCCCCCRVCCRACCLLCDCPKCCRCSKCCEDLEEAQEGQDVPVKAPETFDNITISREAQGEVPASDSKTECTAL
Method: The binding cross-reactivity of humanized antibody variant v29456 to human, cynomolgus and mouse NaPi2b was assessed by flow cytometry using HEK293-6e transfected cells.
Briefly, HEK293-6e cells were transfected for ˜24 hours to transiently express human NaPi2b, cynomolgus or mouse NaPi2b, at 1 μg of DNA per 1 million cells. Following transfection, 50,000 cells per well were seeded in V-bottom 96-well plates and incubated with 200 nM of primary antibody for 18-24 hours at 4° C. to prevent internalization. Post-incubation, cells were washed and stained with anti-Human IgG Fc AF647 conjugate (Jackson Immuno Research Labs, West Grove, PA, Cat. No. 109-605-098, Lot. No. 124868) at 4° C. for 1 hour. Following staining and washing, fluorescence was detected by flow cytometry on BD LSRFortessa™ Cell Analyzer (BD Biosciences, Franklin Lake, NJ) with 10,000 minimum events collected per well. The AF647/APC-A GeoMean (fluorescence signal geometric mean, proportional to anti-Human AF647 binding) was calculated for the live singlet cell population for each primary antibody using FlowJo™ v8 software (BD Biosciences, Franklin Lake, NJ). The Bmax and Kd of each primary antibody were calculated using GraphPad Prism Version 9 (GraphPad Software, San Diego, CA)

[1] = Capillary isoelectric focusing (cIEF); assay type: physicochemical; conditions: main isoform; 0.5 mg/mL
Method: The isoelectric point was measured by capillary isoelectric focusing (cIEF), the propensity for self-aggregation was measured by Affinity-capture self-interaction nanoparticle spectroscopy (AC-SINS) and non-specific binding was measured by NS-ELISA, as described below.
cIEF was carried out using Maurice C. (ProteinSimple®) system, System Suitability Kit and Method Development Kit. System suitability standard, fluorescence calibration standard, cartridge and samples were prepared according to vendor's recommendations. The capillary was automatically calibrated with a fluorescence standard preconditioned with Maurice cIEF System Suitability Kit to ensure the capillary was functioning properly. The antibody samples were diluted to a concentration of 0.5 mg/mL in a final volume of 40 μL in Gibco™ Distilled Water, and mixed Maurice cIEF Method Development Kit Samples. The samples were then vortexed, centrifuged and the supernatant pipetted into individual wells of a 96-well plate. All electropherograms were detected with UV absorbance at 280 nm. All data analyses were performed using vendor software Compass for iCE (ProteinSimple®).

HCC-78 cells = experiment: Internalization by flow cytometry in HCC-78 cells; assay type: cell-based, human; conditions: antibody 10 nM
Method: Briefly, antibodies were fluorescently labeled by coupling to a Fab fragment AF488 conjugate targeting anti-Human IgG Fe (Jackson Immuno Research Labs, West Grove, PA; Cat. No. 109-547-008) at a 1:1 molar ratio in PBS pH 7.4 (Thermo Fisher Scientific, Waltham, MA; Cat. No. 10010-023), for 24 hours at 4° C. Cells were seeded at 50,000 cells/well in RPMI 1640, ATCC modification (Thermo Fisher Scientific, Waltham, MA) supplemented with 10% fetal bovine serum (Thermo Fisher Scientific, Waltham, MA) in 48-well plates and incubated overnight under standard culturing conditions (37° C./5% CO2) to allow attachment. […] Following incubation, cells were dissociated, washed, and surface AF488 fluorescence was quenched using an anti-AF488 antibody (Life Technologies, Carlsbad, CA; Cat. No. A-11094) at 100 nM for 30 minutes at 4° C. […] (internalized fluorescence) was detected by flow cytometry on a BD LSRFortessa™ Cell Analyzer (BD Biosciences, Franklin Lake, NJ) with 1,000 minimum events collected per well. The AF488/FITC-A GeoMean (fluorescence signal geometric mean, proportional to anti-Human Fab AF488 labelling) was calculated for the live single cell population using FlowJo™ Version 10.8.1 (BD Biosciences, Franklin Lake, NJ) and plotted using GraphPad Prism Version 9 (GraphPad Software, San Diego, CA).

B1: v29456: humanized anti-NaPi2b IgG1/kappa antibody H1L2; VH SEQ ID NO:24, VL SEQ ID NO:29 (antibody, V domains shown)
VH: QVQLVQSGAEVKKPGASVKVSCKASGFTFTSYNVHWVRQAPGQGLEWMGAISPGNGDLSYAQKFQGRVTMTRDTSTSTVYMELSSLRSEDTAVYYCARGRTGMGAVDYWGQGTLVTVSS
VL: DVQMTQSPSSLSASVGDRVTITCRASQDVYSYLNWYQQKPGKAVKLLIYYTSRLQSGVPSRFSGSGSGTDYTLTISSLQPEDFATYYCQQYNIFPWTFGQGTKLEIK
modifications: v29452, v29456, v29460 VH (H1); v29453, v29454, v29455, v29456 VL (L2)
Human NaPi2b
  Bmax (APC-A GeoMean), Hu NaPi2b: 2,538 APC-A GeoMean
Human NaPi2b; highest antibody concentration 200 nM, read-out: Apparent Kd (nM), Hu NaPi2b
  Kd: 5.2 nM
[1]
  cIEF pI: 8.53
HCC-78 cells; HCC-78, 5 hrs
  Internalized Fluorescence Fold-Over Palivizumab: 25.3 fold
HCC-78 cells; HCC-78, 24 hrs
  Internalized Fluorescence Fold-Over Palivizumab: 59.9 fold
